Laboratory results reported in the supplement of paper PMC9112550, “Optimization of the antimicrobial peptide Bac7 by deep mutational scanning” (BMC Biology, 2022).

Tested on: Escherichia coli TOP10
Assay: shrunken log2 fold change of peptide-encoding DNA abundance (4.5 h post-induction vs induction); higher = less antimicrobial activity (less host growth inhibition)
Details: time post-induction: 4.5 h; library: site-saturation at positions 5, 18, 19, 20
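Further: peptides expressed intracellularly from a pBAD plasmid library in pooled LB shake-flask culture, induced with 0.3% L-arabinose, DNA abundance read by NGS, three biological replicates, DESeq2 with apeglm shrinkage.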

Sequence	shrunken log2 fold change
RRIRARPPRLPRPRPRPIQHPRP	-0.132
RRIRWRPPRLPRPRPRPVLMPRP	-0.0411
RRIRWRPPRLPRPRPRPHHPPRP	0.0415
RRIRYRPPRLPRPRPRPLQDPRP	0.0382
RRIRDRPPRLPRPRPRPWLIPRP	-0.138
RRIRTRPPRLPRPRPRPTCYPRP	-0.0585
RRIRFRPPRLPRPRPRPSRVPRP	0.0914
RRIRRRPPRLPRPRPRPGCAPRP	0.73
RRIRWRPPRLPRPRPRPEVDPRP	1.87
RRIRYRPPRLPRPRPRPAYMPRP	-0.396
RRIRYRPPRLPRPRPRPEDYPRP	-0.00116
RRIRFRPPRLPRPRPRPQRFPRP	0.0542
RRIRDRPPRLPRPRPRPDFFPRP	0.195
RRIRDRPPRLPRPRPRPHTMPRP	-0.863
RRIRARPPRLPRPRPRPFTKPRP	-0.295
RRIRNRPPRLPRPRPRPTSYPRP	0.00322
RRIRARPPRLPRPRPRPHISPRP	-0.278
RRIRVRPPRLPRPRPRPFYMPRP	-0.136
RRIRHRPPRLPRPRPRPLVVPRP	-0.0489
RRIRRRPPRLPRPRPRPCKFPRP	0.123
RRIRMRPPRLPRPRPRPAIKPRP	-0.183
RRIRIRPPRLPRPRPRPFIIPRP	-1.76

Sequence	shrunken log2 fold change
RRIRHRPPRLPRPRPRPDWTPRP	-0.0689
RRIRRRPPRLPRPRPRPWTSPRP	-0.0576
RRIRDRPPRLPRPRPRPYQTPRP	-0.0929
RRIRYRPPRLPRPRPRPHLSPRP	-0.235
RRIRVRPPRLPRPRPRPWQPPRP	0.146
RRIRTRPPRLPRPRPRPAPGPRP	0.544
RRIRMRPPRLPRPRPRPVHPPRP	0.127
RRIRQRPPRLPRPRPRPKPFPRP	-0.101
RRIRERPPRLPRPRPRPRHTPRP	-0.187
RRIRHRPPRLPRPRPRPRTTPRP	0.136
RRIRIRPPRLPRPRPRPDSIPRP	-0.00884
RRIRLRPPRLPRPRPRPFANPRP	0.0335
RRIRVRPPRLPRPRPRPGLTPRP	-0.011
RRIRSRPPRLPRPRPRPVIQPRP	-0.178
RRIRCRPPRLPRPRPRPYTQPRP	-1.31
RRIRKRPPRLPRPRPRPDVFPRP	-0.162
RRIRCRPPRLPRPRPRPAYLPRP	-0.247
RRIRKRPPRLPRPRPRPGMMPRP	0.308
RRIRIRPPRLPRPRPRPGQCPRP	-0.13
RRIRKRPPRLPRPRPRPEMTPRP	2.82
RRIRSRPPRLPRPRPRPSHHPRP	-0.515
RRIRPRPPRLPRPRPRPQTIPRP	-0.0413

Sequence	shrunken log2 fold change
RRIRKRPPRLPRPRPRPAIWPRP	0.463
RRIRERPPRLPRPRPRPLPKPRP	0.222
RRIRGRPPRLPRPRPRPPRWPRP	1.17
RRIRQRPPRLPRPRPRPLQWPRP	0.123
RRIRCRPPRLPRPRPRPDMKPRP	-0.996
RRIRYRPPRLPRPRPRPHLHPRP	-1.12
RRIRRRPPRLPRPRPRPYNHPRP	-0.8
RRIRQRPPRLPRPRPRPTMIPRP	0.151
RRIRERPPRLPRPRPRPHRVPRP	0.0121
RRIRPRPPRLPRPRPRPMFVPRP	-0.254
RRIRWRPPRLPRPRPRPHRLPRP	-0.0123
RRIRKRPPRLPRPRPRPVNSPRP	0.0157
RRIRFRPPRLPRPRPRPYTMPRP	-1.06
RRIRFRPPRLPRPRPRPADRPRP	-0.0752
RRIRERPPRLPRPRPRPYQNPRP	-0.0789
RRIRRRPPRLPRPRPRPGYPPRP	0.00327
RRIRMRPPRLPRPRPRPGVQPRP	0.16
RRIRRRPPRLPRPRPRPEYSPRP	-0.265
RRIRPRPPRLPRPRPRPFYQPRP	-0.142
RRIRDRPPRLPRPRPRPECRPRP	1.03
RRIRGRPPRLPRPRPRPNPVPRP	0.145
RRIRERPPRLPRPRPRPNMKPRP	-0.6

Sequence	shrunken log2 fold change
RRIRTRPPRLPRPRPRPRIPPRP	0.00212
RRIRFRPPRLPRPRPRPKKHPRP	-0.264
RRIRLRPPRLPRPRPRPGYIPRP	-0.41
RRIRDRPPRLPRPRPRPRHTPRP	0.122
RRIRWRPPRLPRPRPRPLTEPRP	0.251
RRIRLRPPRLPRPRPRPDELPRP	0.00705
RRIRTRPPRLPRPRPRPHCIPRP	-0.489
RRIRWRPPRLPRPRPRPFKAPRP	0.0343
RRIRCRPPRLPRPRPRPQGYPRP	-0.0448
RRIRTRPPRLPRPRPRPLKGPRP	-0.377
RRIRTRPPRLPRPRPRPWAGPRP	-0.0234
RRIRPRPPRLPRPRPRPEWSPRP	-0.0838
RRIRWRPPRLPRPRPRPYKLPRP	-0.327
RRIRHRPPRLPRPRPRPLFEPRP	-0.135
RRIRERPPRLPRPRPRPIPPPRP	0.0452
RRIRIRPPRLPRPRPRPTILPRP	-0.248
RRIRYRPPRLPRPRPRPPDKPRP	0.194
RRIRGRPPRLPRPRPRPMVGPRP	0.108
RRIRYRPPRLPRPRPRPGHKPRP	-0.485
RRIRMRPPRLPRPRPRPKPTPRP	0.266
RRIRFRPPRLPRPRPRPIPAPRP	-0.15
RRIRRRPPRLPRPRPRPTRAPRP	0.738

Sequence	shrunken log2 fold change
RRIRGRPPRLPRPRPRPYNYPRP	-0.129
RRIRTRPPRLPRPRPRPYYHPRP	-0.581
RRIRFRPPRLPRPRPRPWTQPRP	-0.959
RRIRDRPPRLPRPRPRPQNMPRP	-0.574
RRIRMRPPRLPRPRPRPTNTPRP	0.176
RRIRPRPPRLPRPRPRPHTPPRP	-0.0561
RRIRYRPPRLPRPRPRPPTIPRP	-0.424
RRIRMRPPRLPRPRPRPHPDPRP	-0.0902
RRIRYRPPRLPRPRPRPDPAPRP	-0.164
RRIRSRPPRLPRPRPRPEIDPRP	0.166
RRIRERPPRLPRPRPRPNLPPRP	-0.0648
RRIRNRPPRLPRPRPRPWVEPRP	-0.109
RRIRRRPPRLPRPRPRPQQYPRP	-0.0784
RRIRIRPPRLPRPRPRPGHEPRP	0.018
RRIRCRPPRLPRPRPRPIRHPRP	-0.146
RRIRCRPPRLPRPRPRPKWIPRP	-0.366
RRIRERPPRLPRPRPRPPYVPRP	-0.524
RRIRDRPPRLPRPRPRPQIDPRP	-0.0493
RRIRKRPPRLPRPRPRPLVNPRP	-0.0445
RRIRIRPPRLPRPRPRPVLNPRP	-0.492
RRIRMRPPRLPRPRPRPGDSPRP	0.557
